The values that follow come from paper PMC8750329.

Assay [1] concerns the target P. clarkii crustacyanin A2 (PcCRA2) (Procambarus clarkii). As to the kind of experiment: SEC + other: SDS-PAGE; fraction F2, 1 mg/mL, TSK-gel G3000SWxl, 20 mM sodium phosphate pH 7.0, 0.7 mL/min, calibrated with a protein standard mix; native mass about 43 kDa against a single 21 kDa band on SDS-PAGE.
Assay [2] shares this target. As to the kind of experiment: SEC + other: SDS-PAGE; fraction F1, 1 mg/mL, TSK-gel G3000SWxl, 20 mM sodium phosphate pH 7.0, 0.7 mL/min, calibrated with a protein standard mix; native mass about 170 kDa against a single 21 kDa band on SDS-PAGE.

Usually stoichiometry N stands for a count of units in the complex or per binding partner. For the substance “P. clarkii crustacyanin A2 (PcCRA2) (natural protein)”, the stoichiometry N in assay [1] is 2; in assay [2] it was 8.
